The series in a line: soluble on expression in E. coli; label from the status in PepcDB or PDB records.
Regarding “MSLKKSWLGYAQGYLLYRDLNNHSMTAIRISPETLEQDGTVLLPDCHTEGQNILFTDGEYINQIAASRDDGFVVRIFATSTEPVLQQELQLKLARKCLHACGISLFDLEKDLHIISTGFDEESAILGAGREFALMKTANGKIYYTGKYQSLGIKQGGPSAGKWVELPITKSPKIVHFSVGHDGSHALLVAEDGSVFFTGSASKGEDGESTKSRRQSKPYKPKKIIKMEGKIVVYTACNNGSSSVISKDGELYMFGKDAIYSDSSSLVSDLKGHFVTQVAMGKAHTCVLMKNGEVWTFGVNNKGQCGRDTGAMNQGGKGFGVENMATAMDEDLEEELDEKDEKSMMCPPGMHKWKLEQCMVCTVCGDCTGYGASCVSSGRPDRVPGGICGCGSGESGCAVCGCCKACARELDGQEARQRGILDAVKEMIPLDLLLAVPVPGVNIEEHLQLRQEEKRQRVIRRHRLEDGRGPLVFAGPIFMNHREQALARLRSHPAQLKHKRDKHKDGSGDRGEKDASKITTYPPGSVRFDCELRAVQVSCGFHHSVVLMENGDVYTFGYGQHGQLGHGDVNSRGCPTLVQALPGPSTQVTAGSNHTAVLLMDGQVFTFGSFSKGQLGRPILDIPYWNAKPAPMPNIGSKYGRKATWIGASGDQTFLRIDEALINSHEGHHHHHH”, the “soluble on expression in E. coli” value was “not soluble”.
With “MSEETIEKFEDNVEHQNQDQPVPEGMSKKQLRRQKYKVKWEEKKLVKRAAERIRKKEKRAALKESGDLSKLRKRKDFRTMAQSNSKQRIALDMSFDDLMIEKDQKRTVQQIGWCYTANRHSPDPFQFHVVGFDGPSRKIYDGNEHNLNQDIHLHQEKLENLFKPEEIVYLTSESENVLSDLDDTKVYVIGGIVDHNSQKGLCYRIAQEKGFGHAKLPLDEHLLMKSRRVLTINQVYEILVHYSVHKNWKDALLSIIPERKNAQLKEEVVEEKPESLEEIGKLDTESTDTATGSPKIN” the entry was “soluble”.
Regarding “MGSRCVAAANCPFGKLPGQSCVRKSDPSLAFNIPSNQDNCPMGQVCITAGESQVGHCCPVICPLNTTTDTRYSCDPDAAPALKCPSDSHYCYFLSGNFNKIQNFICNANSDGSFSQAACCRRPCNAMAPNALYVDYHCMPRGQLNSACTSNAQCGGGEGMECMKGQCQCQQNFHPAVDVLTNPLKNPSQSCSRDCESENLSKDTSCMKAVPLNSLCFIQKQCPQNSGCYRGRCMCRCGFAAKNGKCVEIPAPPTTTSAPAPAIIPGVPINPGNDLFKLFGQFLGAGNGGGGLNFG”, the “soluble on expression in E. coli” value was “not soluble”.
With “MRMRHKPWWDDFLAENADIAISNPADYKGKWNTVFGNDNPIHIEVGTGKGQFISGMAKQNPDINYIGIELFKSVIVTAVQKVKDSEAQNVKLLNIDADTLTDVFEPGEVKRVYLNFSDPWPKKRHEKRRLTYSHFLKKYEEVMGKGGSIHFKTDNRGLFEYSLKSFSEYGLLLTYVSLDLHNSNLEGNIMTEYEEKFSALGQPIYRAEVEWRT” the entry was “soluble”; with “MPVEHLDVLIVGAGLSGVGAAYHLMKHCPGKSFALLEGRAAMGGTWDLFRYPGIRSDSDMFTLGYNFKPWSDPKAIADGPSIRRYIEETARENGIDRKIRYRHRVLRADWDSANARWNLDVQRGDEPEPLRMTAQFLLMCTGYYRYEAGYTPEFVGREDFAGQVVHPQLWPEDLDYSGKKVVVIGSGATAVTLVPSLTDKAAHVTMLQRSPSYVITLPQKDAISNFLRRFLPETWIYRQARARNVAMQMVFFMLARTFPGLVRKALLKLASLQLGKRFDIRHFSPRYKPWDERVCAVPDGDLFKVLRKGKASVVTEHIDRFVERGIRLKTGEVLEADIIVTATGLDLVMFGGAELAVDGKPFLVNQSMGYRGIMLRDLPNLAAVVGYTNASWTLKADLSSEYFCRLINHMDATGMRQVTARDSTGDVREEPFLNLDSGYIQRAAERMPKQGDRMPWKLYQNYVLDLALLRYGKVEDGYLVFSSPAPQRQAGGAAVQALGLEHHHHHH”, “not soluble”.
Regarding “MSLAIPRQKMPAQDPVERVGNFKEVNLGLTPEQAQQEALRCIQCKDPVCIAGCPVNIKIDQFIKLIAEGDFMGAVRKIKEDNVLPSICGRVCPQEDQCEKVCVIGKKHEPVAIGNLERFVGDYERTSGQKIDPKIAPPTGKKVAVVGSGPAGLSCANDLAQYGHKVVVFEALHELGGVLMYGIPEFRLPKEIVREELDGLRRMGIEFRTDVVVGRTITIDELMEEEGFDAVFIGVGAGLPWFMGIPGENLVGVLAANEFLTRVNLMKAYDFLKSSDTPVFDCKGKNVAVFGGGNTAMDAVRTAKRLGAEHAYIVYRRSEKEMPAREEEIHNAKEEGIEFLLLTTPLEFVGDEKAWLTGAKCQKMELGEPDDSGRRRPVPVEGSEYILPIDMAIISIGNGPNPLIHQTTPDIEVSKRETIVVDVNTMQTSKENVYAGGDIVTGGATVILAMGAGRKAAAAINEKLGGTAKNEGHHHHHH”, the “soluble on expression in E. coli” value is “soluble”.
For “MIRHLEFKSRTRTDMIDITSAVQEQVRSAAVRNGVCHLFVLHTTAGITINEGADPAVQRDMVNFLDRLVPIDPYFTHAEGNSDAHIKSTLTGTSLTVFIVEGKLLLGSWQSIYLCEFDGPRHRRVAVKVVPDPLEHHHHHH” the value was “not soluble”.
“MLFIIKYYEPKNLYEHILFILKHLCRSKSMILNPQKLSVDFGNGITATEPIIPRRYTLTHSDITAKLFLNIGLTYAYNKMTTMRDEVLGEWVKKSQDYSYQVFLHVDGRLGPKTTAIRNKIFRRELPLALEAIRYGDKRFFNAHPYLDNAPITVFFISTNPNFNKIENWGTFSDYNIESYYRNYKNVYLLDRKVGDVTGDDIPDTVSLYGEKEAPSEIFADDITVIITDGSTGNTTTITPEFNSGYNPTIFLGDFTKNRVYDIKISIDSGGSGGYGFFYIYSFMENTFREIFNFDAYNKEYKYKVDYDDLYKVNVGAITLNKLFILDISYKGYDVLSQYYYENGKLIKPVDGDVLALGALVPIVSNELLDFYNLLAFQRIIGTYNADTLGYVQNLLSWDGKNFTPSSTFVNISGSSLISPYLEHHHHHH”: the “soluble on expression in E. coli” value was “not soluble”.
For “MGHHHHHHSHMDPEVTLLLQCPGGGLPQEQIQAELSPAHDRRPLPGGDEAITAIWETRLKAQPWLFDAPKFRLHSATLAPIGSRGPQLLLRLGLTSYRDFLGTNWSSSAAWLRQQGATDWGDTQAYLADPLGVGAALATADDFLVFLRRSRQVAEAPGLVDVPGGHPEPQALCPGGSPQHQDLAGQLVVHELFSSVLQEICDEVNLPLLTLSQPLLLGIARNETSAGRASAEFYVQCSLTSEQVRKHYLSGGPEAHESTGIFFVETQNVRRLPETEMWAELCPSAKGAIILYNRVQGSPTGAALGSPALLPPL” the value was “not soluble”.
For “MRYPIMNNFFKIHDNLLRNLSPSLRRGLMDEIDWNDRLIGIKGARGMGKTTFLLDYARENFGIGNRKCLYINLNQLYFTTESLVNFAGEFVKQGGEVLLLDQVFKYPNWSIELRQCMELYPDLRIVFTGSTVMRLKEENPELNGLVTSYVLNGFSFREFLNLKTGLSLQPYSFDEIVSNHEQIAPRILEQVNPLDWFQDYLHHGYYPIFLEDKNYSESLLKTLNMTLEVDVLFIRQIEQRFLHKLRKLLYLLGQRAPGSLNISSIAKEVDTSRTTITNYLKYLSEARLIKELHREEETGAKKPAMIYLDNTNVGYVIQPEPLNYIDVLKTFFLNQVKSRNEVCLGSRSQIAFCVNRQYQFCIDEKMSRRYRPDRYYAIQNMRSGTRNMIPLWLFGFLY” the value was “not soluble”; for “MEVHKAITAHSRKQNESVKACLQLDAQREAAIEAAVSLASNGKEFSVDVINVVTKQINDLAKNGVTLQRKYVTEEMVMEYVSRLKKKEGR”, “not soluble”.
In the case of “MAVKHKSESLKHEEGAAKKAKTGLLKLKKIMDIESNVVKYSICIPTTVIDNCNNLEQVTFTAYQIARTAVLFNVQEIIVLDQSKDKKHEKKSRSKETISDCLLLATLLQYFVTPPNLLDTTFKKKNKLYLKCASTFPPLNQLPFMNASAEQHYKEGLSIARDSSKGKSDDALTNLVYIGKNQIITLSNQNIPNTARVTVDTERKEVVSPIDAYKGKPLGYHVRMASTLNEVSEGYTKIVWVNSGDFHYDEELSKYHKVETKLPYIAKLKKSSTSEKPCNILLIFGKWGHLKRCFRRSDLESSSLHHYFSGQLQFPASVPQGNIPIQDSLPIALTMFQRWAS”, the “soluble on expression in E. coli” value is “soluble”.

(Values after the DeepSol protein solubility set.)
